B1: AtTAA1 (Arabidopsis thaliana) (protein)
chain: MVKLENSRKPEKISNKNIPMSDFVVNLDHGDPTAYEEYWRKMGDRCTVTIRGCDLMSYFSDMTNLCWFLEPELEDAIKDLHGVVGNAATEDRYIVVGTGSTQLCQAAVHALSSLARSQPVSVVAAAPFYSTYVEETTYVRSGMYKWEGDAWGFDKKGPYIELVTSPNNPDGTIRETVVNRPDDDEAKVIHDFAYYWPHYTPITRRQDHDIMLFTFSKITGHAGSRIGWALVKDKEVAKKMVEYIIVNSIGVSKESQVRTAKILNVLKETCKSESESENFFKYGREMMKNRWEKLREVVKESDAFTLPKYPEAFCNYFGKSLESYPAFAWLGTKEETDLVSELRRHKVMSRAGERCGSDKKHVRVSMLSREDVFNVFLERLANMKLIKSIDL
B2: AtTAR1 (Arabidopsis thaliana) (protein)
chain: MMVGCENSKKSDSGSNEDKSLSDDIINLDQGDPTAFQEYWMKKKDRCTVVIPAWDLMSYFSDTKNVCWFLEPELEKAIKALHGAIGNAATEERYIVVGTGSSQLCQAALFALSSLSEVKPVSIVAAVPYYSTYVEEASYLQSTLYKWEGDARTFDKKGPYIELVTSPNNPDGIMREPVVNRREGGKVIHDLAYYWPHYTPITRRQDHDLMLFTFSKITGHAGSRIGWALVKDIEVAKKMVHYLTINSIGVSKESQTRATTILNELTKTCRTQSESFFEYGYEKMKSRWERLREVVESGDAFTLPNYPQDFCNFFGKTLSTSPAFAWLGYKEERDLGSLLKEKKVLTRGGDRCGCNKRYVRVSMLSRDDDFDVSLQRLATIKDLKCVEP

Key:
Test in all cases: purified protein
Type in all cases: biochemical, Arabidopsis thaliana
purified protein [1] = substrate: N[C@@H](Cc1c[nH]c2ccccc12)C(=O)O; conditions: 0.2 mM PLP, 100 mM HEPES pH 8.0, 30 °C
purified protein [2] = substrate: N[C@@H](Cc1ccc(O)cc1)C(=O)O; conditions: 0.2 mM PLP, 100 mM HEPES pH 8.0, 30 °C
purified protein [3] = substrate: N[C@@H](Cc1c[nH]cn1)C(=O)O; conditions: 20 mM alpha-ketoglutarate, 0.2 mM PLP, 100 mM HEPES pH 8.0, 30 °C
purified protein [4] = substrate: N[C@@H](Cc1ccccc1)C(=O)O; conditions: 0.2 mM PLP, 100 mM HEPES pH 8.0, 30 °C

Protein	Km (purified protein [1]; 20 mM pyruvate) [mM]	kcat (purified protein [1]; 20 mM pyruvate) [s⁻¹]	Km (purified protein [2]; 20 mM pyruvate) [mM]	kcat (purified protein [2]; 20 mM pyruvate) [s⁻¹]	Km (purified protein [3]) [mM]	kcat (purified protein [3]) [s⁻¹]	Km (purified protein [4]; 20 mM pyruvate) [mM]	kcat (purified protein [4]; 20 mM pyruvate) [s⁻¹]	Km (purified protein [1]; 20 mM alpha-ketoglutarate) [mM]	kcat (purified protein [1]; 20 mM alpha-ketoglutarate) [s⁻¹]	Km (purified protein [2]; 20 mM alpha-ketoglutarate) [mM]	kcat (purified protein [2]; 20 mM alpha-ketoglutarate) [s⁻¹]	Km (purified protein [4]; 20 mM alpha-ketoglutarate) [mM]	kcat (purified protein [4]; 20 mM alpha-ketoglutarate) [s⁻¹]
B1	1.2 ± 0.2	4.2 ± 0.2	8 ± 3	13.2 ± 0.3	11 ± 2	0.6 ± 0.1	13 ± 3	2.0 ± 0.3	–	–	–	–	–	–
B2	–	–	–	–	30 ± 6	1.8 ± 0.1	–	–	0.07 ± 0.02	4.5 ± 0.2	1 ± 3	4.0 ± 0.3	2.6 ± 0.3	5.0 ± 0.2

Source: article PMC9957770, “Mass spectrometry imaging–based assays for aminotransferase activity reveal a broad substrate spectrum for a previously uncharacterized enzyme” (The Journal of Biological Chemistry, 2023)
